This is an account of results in patent US8865657B2, “Compositions and methods for inactivating or suppressing inflammatory cells” (New York University, priority 2005, dated 2014).

The subject of assay [1] is Kupffer cells. Nature of the assay: cAMP radioimmunoassay, intracellular cAMP in Kupffer cells. The format is cell-based, rat. The note with it: for effect on cAMP level, agent alone: RAP 500 nM alone, lactoferrin 100 nM. The method, then: (§1) Liver cell isolation. […] The nonparenchymal cell-containing supernatant was saved.
(§2) Cell culture. […] HepG2 cells were used on day 3 after plating.
(§3) Cell treatment. […] Role of calcium and cyclic AMP. […] J Immunol 174: 2981-2989). […] IBMX was dissolved in dimethyl sulphoxide (DMSO).
(§4) cAMP radioimmunoassay. For cAMP determination, liver cell cultures were incubated in culture medium without FCS at 37° C. for 0-90 min. The cultures were then placed on ice, and the reaction was stopped by aspiration of the incubation medium followed by the addition of 1 ml of ice cold 65% (vol/vol) ethanol. The cells were scraped into Eppendorf tubes and centrifuged at 10000 g for 10 min at 4° C. The supernatants were dried in SC110 Speedvac Concentrator (Savant, Farmingdale, N.Y.) at room temperature, and the dried extracts were dissolved in assay buffer for cAMP determination with cAMP [^125I] Direct Biotrak Assay from Amersham Biosciences (Piscataway, N.J.), according to the instructions of the manufacturer. Samples were analyzed with a Beckman LS 6000 scintillation counter. The cAMP level in each sample was normalized to the protein concentration and expressed as fmol/μg of protein. Ethanol-precipitated cell pellets were diluted with 0.15 M NaOH and the protein concentration was measured with the Micro BCA Protein Assay Kit (Pierce Chemical Co., Rockford, Ill.) according to manufacturer's instructions.

Assay [2] concerns Kupffer cells. Briefly: Inositol-1,4,5-trisphosphate (IP3) assay in Kupffer cells. It is filed as cell-based, rat. The note with it: data not shown. The method, then:
as §1, §2
Inositol-1,4,5-trisphosphate (IP3) assay. Intracellular IP3 levels were measured with a IP3 [^3H] Biotrak Assay (Amersham Biosciences, Piscataway, N.J.). Liver cells (3.0×10^6 per well) were incubated for 0, 30, 60, 120 sec with 100 nM CSP in RPMI-1640 containing 10 mM LiCI. The plates were then placed on ice, and the reaction was stopped by aspiration of the incubation medium followed by the addition of 20% ice-cold perchloric acid. After incubation on ice for 20 min, the cells were scraped into Eppendorf tubes. The precipitated protein was removed by centrifugation at 10000 g for 15 min at 4° C. The supernatant was neutralized to pH 7.5 by titrating with ice-cold 1.5 M KOH containing 60 mM HEPES buffer. The precipitated KClO4 was removed by centrifugation at 5000 g for 15 min at 4° C. Radioactivity in the supernatant was measured with a Beckman LS 6000 scintillation counter.

In the next assay the test system is Liver endothelial cells. Briefly: cAMP radioimmunoassay, intracellular cAMP in liver endothelial cells. The format is cell-based, rat. The method, then:
as §1, §2, §3, §4

In the next assay the test system is Hepatocytes. Nature of the assay: cAMP radioimmunoassay, intracellular cAMP in hepatocytes. It is filed as cell-based, rat. The method, then:
as §1, §2, §3, §4

The test system of the next assay is HepG2 cells. Briefly: cAMP radioimmunoassay, intracellular cAMP in HepG2 cells. The format is cell-based, human. The method, then: as §2, §3, §4

B1: RAP: Recombinant human RAP, universal inhibitor of ligand binding to LRP-1 (protein, UniProt P30533 35-357, looked up)
Alpha-2-macroglobulin …: YSREKNQPKPSPKRESGEEFRMEKLNQLWEKAQRLHLPPVRLAELHADLKIQERDELAWKKLKLDGLDEDGEKEARLIRNLNVILAKYGLDGKKDARQVTSNSLSGTQEDGLDDPRLEKLWHKAKTSGKFSGEELDKLWREFLHHKEKVHEYNVLLETLSRTEEIHENVISPSDLSDIKGSVLHSRHTELKEKLRSINQGLDRLRRVSHQGYSTEAEFEEPRVIDLWDLAQSANLTDKELEAFREELKHFEAKIEKHNHYQKQLEIAHEKLRHAESVGDGERVSRSREKHALLEGRTKELGYTVKKHLQDLSGRISRARHNEL
Consider B1, for which the “effect on cAMP level, agent alone” value in the assay with Kupffer cells [1] (Kupffer cells) is “had no effect”. The “effect on the CSP-induced generation of cAMP” value in the assay with Kupffer cells [1] (added 10 min before 50 nM CSP (30 min), RAP 500 nM) is “blocked”. Further, the “effect on IP3, agent alone” value with Kupffer cells [2] (RAP alone) is given as “had no effect”. For the same molecule, the “effect on the CSP-induced IP3 increase” value in the assay with Kupffer cells [2] (preincubation 10 min with 500 nM RAP before CSP) was “prevented this increase”.

B2: Lactoferrin: lactoferrin (LF; from bovine colostrum), another LRP-1 ligand (protein, UniProt P24627 20-708, looked up)
Lactotransferrin: APRKNVRWCTISQPEWFKCRRWQWRMKKLGAPSITCVRRAFALECIRAIAEKKADAVTLDGGMVFEAGRDPYKLRPVAAEIYGTKESPQTHYYAVAVVKKGSNFQLDQLQGRKSCHTGLGRSAGWIIPMGILRPYLSWTESLEPLQGAVAKFFSASCVPCIDRQAYPNLCQLCKGEGENQCACSSREPYFGYSGAFKCLQDGAGDVAFVKETTVFENLPEKADRDQYELLCLNNSRAPVDAFKECHLAQVPSHAVVARSVDGKEDLIWKLLSKAQEKFGKNKSRSFQLFGSPPGQRDLLFKDSALGFLRIPSKVDSALYLGSRYLTTLKNLRETAEEVKARYTRVVWCAVGPEEQKKCQQWSQQSGQNVTCATASTTDDCIVLVLKGEADALNLDGGYIYTAGKCGLVPVLAENRKSSKHSSLDCVLRPTEGYLAVAVVKKANEGLTWNSLKDKKSCHTAVDRTAGWNIPMGLIVNQTGSCAFDEFFSQSCAPGADPKSRLCALCAGDDQGLDKCVPNSKEKYYGYTGAFRCLAEDVGDVAFVKNDTVWENTNGESTADWAKNLNREDFRLLCLDGTRKPVTEAQSCHLAVAPNHAVVSRSDRAAHVKQVLLHQQALFGKNGKNCPDKFCLFKSETKNLLFNDNTECLAKLGGRPTYEEYLGTEYVTAIANLKKCSTSPLLEACAFLTR
For B2, the cAMP in the assay with Kupffer cells [1] (Kupffer cells, 100 nM lactoferrin, 30 min at 37° C., serum-free RPMI-1640, mean±S.E.) was 14.10 ± 2.10 fmol/μg protein; in the assay with Liver endothelial cells (Liver endothelial cells, 100 nM lactoferrin, 30 min at 37° C., mean±S.E.) it was 5.58 ± 0.30 fmol/μg protein; in the assay on Hepatocytes (Hepatocytes, 100 nM lactoferrin, 30 min at 37° C., mean±S.E.), 2.61 ± 0.09 fmol/μg protein; in the assay on HepG2 cells (HepG2 cells, 100 nM lactoferrin, 30 min at 37° C., mean±S.E.) it was 6.50 ± 0.07 fmol/μg protein. For the same molecule, the “effect on cAMP level, agent alone” value in the assay with Kupffer cells [1] (Kupffer cells) is “no significant effect”. Besides, the “effect on cAMP concentration” value with Liver endothelial cells (endothelial cells), with Hepatocytes (hepatocytes) and with HepG2 cells (human hepatoma cell line HepG2) was “no significant effect” throughout.
